Reference: US11510990B2, “Conjugates of fusion proteins of GLP-1 and FGF21” (BEIJING QL BIOPHARMACEUTICAL CO., LTD., priority 2020, dated 2022)

Experiments:
[1] = Body weight reduction in C57BL/6 mice, daily subcutaneous dosing; format: in vivo; settings: for Body weight reduction at 30 nmol/kg (% reduction compared to vehicle)(Day11): male C57BL/6 mice, 30 nmol/kg subcutaneously everyday, Day 11; for BW reduction compared to Semaglutide: 30 nmol/kg, 10-day dosing period (FIGS. 1A-1B)
Procedure: FIGS. 1A-1F show in vivo activities of fusion protein conjugates. […] Body weight was measured daily. […] Compared to Vehicle control: ***, p<0.001. All data are expressed as mean values and standard error (SEM).
10 week old male C57BL/6 mice were injected everyday subcutaneously with 30 nmol/kg exemplary fusion protein conjugates for 10 or 14 days (n=5). Body weight was daily monitored for each individual animal. Day 1 and Day 10 (or Day 14) are first day and last day of molecule dosage. % BW loss=100*(BW on Day n-BW on Day 1)/(BW on Day 1). Data are indicated as mean values and standard error (SEM) or pooled values. Statistical analysis was performed by One-way ANOVA. Body weight reduction on Day 11 in Table 5 is calculated by −1*(% BW loss−% BW loss of vehicle group).

[2] = Pharmacokinetic measurement in C57BL/6 mice, single subcutaneous dose, plasma ELISA; format: in vivo; settings: for AUClast / Cmax / Terminal t1/2 / Tmax: single subcutaneous dose 30 nmol/kg, plasma
Procedure: Each fusion protein conjugate was injected subcutaneously into C57BL/6 mice (n=3/group) once and plasma samples were collected at designed timepoints and analyzed by ELISA method. Plasma concentrations are indicated as mean values and standard error (SEM).
6-8 week old male C57BL/6 mice were administrated in a single subcutaneous dose of 30 nmol/kg of the exemplary fusion protein conjugates (Compounds 4, 9, 10, 19, 63) or the non-acylated fusion protein (i.e., Compound 3, which has the amino acid sequence identical to Compound 2 but without any conjugation) (n=3/group). Plasma samples were collected pre-dose (−5 min), 0.5 hr, 1 hr, 2 hr, 4 hr, 6 hr, 8 hr, 12 hr and 24 hr hours after the injection. For Compound 3, plasma collection timepoints were −5 min, 0.25 h, 0.5 h, 1 h, 2 h, 4 h and 6 h. The concentrations of the fusion protein conjugates or the non-acylated fusion protein in the plasma were measured by an ELISA assay which has immunoreactivities towards both C-terminal FGF21 and intact N-terminal of GLP-1. Based on the graph showing plasma concentration of each protein versus time after subcutaneous injection, the pharmacokinetic parameters were calculated by WinNonlin.
Pharmacokinetic data were analyzed by WinNonlin software. Tmax, Cmax, T1/2, AUC and MRT were calculated for each molecule.

| Molecule | Body weight reduction at 30 nmol/kg (% reduction compared to vehicle)(Day11) [1] | AUC compared to non-acylated fusion protein (Compound 3) ([2]; 30 nmol/kg subcutaneous) | AUClast [2] | Cmax [2] | Terminal t1/2 [2] | Tmax [2] | also measured |
| --- | --- | --- | --- | --- | --- | --- | --- |
| Compound 71: GLP-1/FGF21 fusion polypeptide SEQ ID NO: 168 conjugated with Moiety B at 52C and 282C (conjugate, Moiety B conjugated at C52 and C282) HGEGTFTSDVSSYLEEQAAKEFIAWLVKGGGGAQPGAQPGAQPGAQPGAQPCQAPGAQPGAQPGAQPGAQPGAQPGAQPGAQPGAQPGAQPGAQPGAQPGAQPGAQPGAQPHPIPDSSPLLQFGGQVRQRYLYTDDAQQTEAHLEIREDGTVGGAADQSPESLLQLKALKPGVIQILGVKTSRFLCQRPDGALYGSLHFDPEACSFRELLLEDGYNVYQSEAHGLPLHLPGQKSPHRDPAPRGPARFLPLPGLPPALPEPPGILAPQPPDVGSSDPLSLVGCSQGRSPSYES | 24.5% |  |  |  |  |  |  |
| Compound 72: GLP-1/FGF21 fusion polypeptide SEQ ID NO: 169 conjugated with Moiety B at 62C and 282C (conjugate, Moiety B conjugated at C62 and C282) HGEGTFTSDVSSYLEEQAAKEFIAWLVKGGGGAQPGAQPGAQPGAQPGAQPGAQPGAQPGQCPGAQPGAQPGAQPGAQPGAQPGAQPGAQPGAQPGAQPGAQPGAQPGAQPHPIPDSSPLLQFGGQVRQRYLYTDDAQQTEAHLEIREDGTVGGAADQSPESLLQLKALKPGVIQILGVKTSRFLCQRPDGALYGSLHFDPEACSFRELLLEDGYNVYQSEAHGLPLHLPGQKSPHRDPAPRGPARFLPLPGLPPALPEPPGILAPQPPDVGSSDPLSLVGCSQGRSPSYES | 25.8% |  |  |  |  |  |  |
| Compound 73: GLP-1/FGF21 fusion polypeptide SEQ ID NO: 170 conjugated with Moiety B at 42C and 282C (conjugate, Moiety B conjugated at C42 and C282) HGEGTFTSDVSSYLEEQAAKEFIAWLVKGGGGAQPGAQPGQCPGAQPGAQPGAQPGAQPGAQPGAQPGAQPGAQPGAQPGAQPGAQPGAQPGAQPGAQPGAQPGAQPGAQPHPIPDSSPLLQFGGQVRQRYLYTDDAQQTEAHLEIREDGTVGGAADQSPESLLQLKALKPGVIQILGVKTSRFLCQRPDGALYGSLHFDPEACSFRELLLEDGYNVYQSEAHGLPLHLPGQKSPHRDPAPRGPARFLPLPGLPPALPEPPGILAPQPPDVGSSDPLSLVGCSQGRSPSYES | 20.2% |  |  |  |  |  |  |
| Compound 66: GLP-1/FGF21 fusion polypeptide SEQ ID NO: 163 conjugated with Moiety B at 51C and 225C (conjugate, Moiety B conjugated at C51 and C225) HGEGTFTSDVSSYLEEQAAKEFIAWLVKGGGGSAPGSPAGSPTGSAPGSPCHPIPDSSPLLQFGGQVRQRYLYTDDAQQTEAHLEIREDGTVGGAADQSPESLLQLKALKPGVIQILGVKTSRFLCQRPDGALYGSLHFDPEACSFRELLLEDGYNVYQSEAHGLPLHLPGQKSPHRDPAPRGPARFLPLPGLPPALPEPPGILAPQPPDVGSSDPLSLVGGSQCRSPSYES | 18.9% |  |  |  |  |  |  |
| Compound 4: GLP-1/FGF21 fusion polypeptide SEQ ID NO: 4 conjugated with Moiety A at 51K and 231K (conjugate, Moiety A conjugated at K51 and K231) HGEGTFTSDVSSYLEEQAAREFIAWLVRGGGGGGGSGGGGSGGGGSGGGGKHPIPDSSPLLQFGGQVRQRYLYTDDAQQTEAHLEIREDGTVGGAADQSPESLLQLRALRPGVIQILGVRTSRFLCQRPDGALYGSLHFDPEACSFRELLLEDGYNVYQSEAHGLPLHLPGQRSPHRDPAPRGPARFLPLPGLPPALPEPPGILAPQPPDVGSSDPLSLVGGSQGRSPSYKS | 27.0% | larger AUC | 1019.6 nM·h | 0.0583 µM | 19.7 h | 8 h | Half-lives of double acylated compared to monoacylated Compounds 9 and 10 ([2]; 30 nmol/kg subcutaneous): significantly prolonged half-lives; PK properties compared to Semaglutide ([2]; 30 nmol/kg subcutaneous): better PK properties; BW reduction compared to Semaglutide [1]: much more enhanced and persistent BW reduction |
| Compound 9: GLP-1/FGF21 fusion polypeptide SEQ ID NO: 9 conjugated with Moiety A at 231K (conjugate, Moiety A conjugated at K231) HGEGTFTSDVSSYLEEQAAREFIAWLVRGGGGGGGSGGGGSGGGGSGGGGSHPIPDSSPLLQFGGQVRQRYLYTDDAQQTEAHLEIREDGTVGGAADQSPESLLQLRALRPGVIQILGVRTSRFLCQRPDGALYGSLHFDPEACSFRELLLEDGYNVYQSEAHGLPLHLPGQRSPHRDPAPRGPARFLPLPGLPPALPEPPGILAPQPPDVGSSDPLSLVGGSQGRSPSYKS | 27.2% | larger AUC | 791.2 nM·h | 0.0656 µM | 3.5 h | 6 h |  |
| Compound 52: GLP-1/FGF21 fusion polypeptide SEQ ID NO: 149 conjugated with Moiety B at 51C and 225C (conjugate, Moiety B conjugated at C51 and C225) HGEGTFTSDVSSYLEEQAAKEFIAWLVRGGGGGGGSGGGGSGGGGSGGGGCHPIPDSSPLLQFGGQVRQRYLYTDDAQQTEAHLEIREDGTVGGAADQSPESLLQLKALKPGVIQILGVKTSRFLCQRPDGALYGSLHFDPEACSFRELLLEDGYNVYQSEAHGLPLHLPGQKSPHRDPAPRGPARFLPLPGLPPALPEPPGILAPQPPDVGSSDPLSLVGGSQCRSPSYES | 20.9% |  |  |  |  |  |  |
| Compound 10: GLP-1/FGF21 fusion polypeptide SEQ ID NO: 10 conjugated with Moiety A at 222K (conjugate, Moiety A conjugated at K222) HGEGTFTSDVSSYLEEQAAREFIAWLVRGGGGGGGSGGGGSGGGGSGGGGSHPIPDSSPLLQFGGQVRQRYLYTDDAQQTEAHLEIREDGTVGGAADQSPESLLQLRALRPGVIQILGVRTSRFLCQRPDGALYGSLHFDPEACSFRELLLEDGYNVYQSEAHGLPLHLPGQRSPHRDPAPRGPARFLPLPGLPPALPEPPGILAPQPPDVGSSDPLSLVGKSQGRSPSYES | 20.0% | larger AUC | 465.1 nM·h | 0.0502 µM | 1.9 h | 4 h | BW reduction compared to Semaglutide [1]: much more enhanced and persistent BW reduction |
| Compound 54: GLP-1/FGF21 fusion polypeptide SEQ ID NO: 151 conjugated with Moiety B at 51C and 231C (conjugate, Moiety B conjugated at C51 and C231) HGEGTFTSDVSSYLEEQAAKEFIAWLVRGGGGGGGSGGGGSGGGGSGGGGCHPIPDSSPLLQFGGQVRQRYLYTDDAQQTEAHLEIREDGTVGGAADQSPESLLQLKALKPGVIQILGVKTSRFLCQRPDGALYGSLHFDPEACSFRELLLEDGYNVYQSEAHGLPLHLPGQKSPHRDPAPRGPARFLPLPGLPPALPEPPGILAPQPPDVGSSDPLSLVGGSQGRSPSYCS | 13.5% |  |  |  |  |  |  |
